Results reported in paper PMC6764859 (Nature chemical biology, 2019).
Blank lines part the entries; values can stand above or below the binder they belong to.

How the values were obtained:
[1] = target: PTCH1_(ECD1), biotinylated (BLI) (human, UniProt Q13635, biotin on the BirA-recognition sequence); experiment: BLI
[2] = target: PTCH1_(ECD2), biotinylated (BLI) (human, UniProt Q13635, biotin on the BirA-recognition sequence); experiment: BLI
Sequence of PTCH1_(ECD2), biotinylated (BLI) (Q13635 772-1023): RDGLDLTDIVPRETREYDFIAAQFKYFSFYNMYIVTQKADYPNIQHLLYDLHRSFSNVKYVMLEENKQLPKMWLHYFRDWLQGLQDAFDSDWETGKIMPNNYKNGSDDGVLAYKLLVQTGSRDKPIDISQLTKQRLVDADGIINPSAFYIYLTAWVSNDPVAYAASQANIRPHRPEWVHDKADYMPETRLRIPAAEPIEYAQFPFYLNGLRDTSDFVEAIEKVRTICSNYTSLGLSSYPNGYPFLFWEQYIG

Sequence of PTCH1_(ECD1), biotinylated (BLI) (Q13635 139-428): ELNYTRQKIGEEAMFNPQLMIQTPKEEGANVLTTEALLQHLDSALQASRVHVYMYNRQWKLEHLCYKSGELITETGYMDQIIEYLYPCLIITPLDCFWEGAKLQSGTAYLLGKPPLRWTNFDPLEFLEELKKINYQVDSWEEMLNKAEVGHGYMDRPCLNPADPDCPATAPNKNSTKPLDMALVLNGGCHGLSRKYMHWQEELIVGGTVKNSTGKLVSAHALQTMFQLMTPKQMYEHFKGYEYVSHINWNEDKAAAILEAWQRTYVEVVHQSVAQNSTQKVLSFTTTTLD

- binding result [1]: binds
B1: NB64 (VHH)
VHH: QVQLQESGGGLVQPGGSLRLSCAASGSGNSINVMGWYRQAPGKPRELVAEITSSGTTNYADSVKGRFSISRDNAKNTVPLQMNSLKPEDTAIYYCSAVLVRFGGLRRSYWGQGTQVTVSS

- binding result [2]: binds
B2: NB75 (VHH)
VHH: QVQLQESGGGLVQAGDSLTLSCAASGRTFSSYTMGWFRQAPGKERDFIAGITSTGSSTYYADSVKGRFTISRDNAKNTVYLQMNSLKPEDTADYYCARKVAGGSYYQKDKYDYWGQGTQVTVSS
